Assay results as given in US20140087995A1 (published 2014).
Substitutions are numbered along the chain they refer to. Numbered stars: 1 amine (or outer) side, 2 acyl side, 3 side chain; on linkers, the order of the positions; unused ones are H or OH. Bridge positions count the residues as written; N and C are the ends. * marks the point of attachment. C20 diacid = O=C(O)CCCCCCCCCCCCCCCCCCC(=O)*; γGlu = O=C(O)[C@H](CCC(=O)[*:2])N[*:1]; AEEA = NCCOCCOCC(=O)O

T1: human amylin receptor (human, UniProt P30988 25-474; O60896 24-148, limits assumed)
T1 construct: whole, on cells; Calcitonin receptor plus RAMP-3 gives the amylin 3(a) receptor; membranes of Amylin 3(a)/CRE-luc cells were used; also called hAmylin-R; hAmylinR
T1 sequence (looked up) 1: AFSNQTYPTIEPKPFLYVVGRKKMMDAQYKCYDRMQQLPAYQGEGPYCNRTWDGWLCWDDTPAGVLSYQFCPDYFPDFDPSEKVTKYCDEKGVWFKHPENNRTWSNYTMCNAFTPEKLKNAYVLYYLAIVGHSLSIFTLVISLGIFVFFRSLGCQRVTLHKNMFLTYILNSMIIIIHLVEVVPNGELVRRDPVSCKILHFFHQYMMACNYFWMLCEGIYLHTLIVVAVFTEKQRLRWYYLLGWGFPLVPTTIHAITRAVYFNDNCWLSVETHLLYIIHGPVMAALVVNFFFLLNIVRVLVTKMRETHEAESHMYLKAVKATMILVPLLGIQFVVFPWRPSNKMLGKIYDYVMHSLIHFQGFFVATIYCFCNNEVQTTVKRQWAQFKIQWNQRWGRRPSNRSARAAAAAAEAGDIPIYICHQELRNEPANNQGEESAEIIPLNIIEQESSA
T1 sequence (looked up) 2: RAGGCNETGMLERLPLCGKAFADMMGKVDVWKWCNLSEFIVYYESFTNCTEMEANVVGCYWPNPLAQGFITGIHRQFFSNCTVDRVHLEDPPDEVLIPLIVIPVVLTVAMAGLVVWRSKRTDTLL

B1: N^α1 N^α1-[(4S)-4-carboxy-4-[[(4S)-4-carboxy-4-(19-carboxynonadecanoylamino)butanoyl]amino]butanoyl]-[Glu14,Arg17,Pro21,Pro27]-h-amylin (peptide)
peptide: {C20 diacid-γGlu-γGlu}-KCNTATCATQRLAEFLRHSSPNFGAIPSSTNVGSNTY-NH2
modifications: disulfide 2-7
SMILES: CC[C@H](C)[C@H](NC(=O)[C@H](C)NC(=O)CNC(=O)[C@H](Cc1ccccc1)NC(=O)[C@H](CC(N)=O)NC(=O)[C@@H]1CCCN1C(=O)[C@H](CO)NC(=O)[C@H](CO)NC(=O)[C@H](Cc1c[nH]cn1)NC(=O)[C@H](CCCNC(=N)N)NC(=O)[C@H](CC(C)C)NC(=O)[C@H](Cc1ccccc1)NC(=O)[C@H](CCC(=O)O)NC(=O)[C@H](C)NC(=O)[C@H](CC(C)C)NC(=O)[C@H](CCCNC(=N)N)NC(=O)[C@H](CCC(N)=O)NC(=O)[C@@H](NC(=O)[C@H](C)NC(=O)[C@@H]1CSSC[C@H](NC(=O)[C@H](CCCCN)NC(=O)CC[C@H](NC(=O)CC[C@H](NC(=O)CCCCCCCCCCCCCCCCCCC(=O)O)C(=O)O)C(=O)O)C(=O)N[C@@H](CC(N)=O)C(=O)N[C@@H]([C@@H](C)O)C(=O)N[C@@H](C)C(=O)N[C@@H]([C@@H](C)O)C(=O)N1)[C@@H](C)O)C(=O)N1CCC[C@H]1C(=O)N[C@@H](CO)C(=O)N[C@@H](CO)C(=O)N[C@H](C(=O)N[C@@H](CC(N)=O)C(=O)N[C@H](C(=O)NCC(=O)N[C@@H](CO)C(=O)N[C@@H](CC(N)=O)C(=O)N[C@H](C(=O)N[C@@H](Cc1ccc(O)cc1)C(N)=O)[C@@H](C)O)C(C)C)[C@@H](C)O
notes: also called 14E, 17R, 21P, 27P
B2: N^α1-[(4S)-4-carboxy-4-(19-carboxynonadecanoylamino)butanoyl]-[Arg17,Pro21,Pro27,His34]-h-amylin (peptide)
peptide: KCNTATCATQRLANFLRHSSPNFGAIPSSTNVGHNTY
modifications: C20 diacid-gGlu on the alpha amino group of the N-terminal residue; disulfide Cys2-Cys7 and C-terminal amide as in human amylin
notes: also called 17R, 21P, 27P, 34H
B3: N^α1-[(4S)-4-carboxy-4-(19-carboxynonadecanoylamino)butanoyl]-[Arg17,Pro21,Pro27,Arg34]-h-amylin (peptide)
peptide: B2 peptide with H34R
modifications: C20 diacid-gGlu on the alpha amino group of the N-terminal residue; disulfide Cys2-Cys7 and C-terminal amide as in human amylin
notes: also called 17R, 21P, 27P, 34R
B4: N^α1-[2-[2-[2-[[2-[2-[2-[[(4S)-4-carboxy-4-(19-carboxynonadecanoylamino)butanoyl]amino]ethoxy]ethoxy]acetyl]amino]ethoxy]ethoxy]acetyl]-[Glu14,Arg17,Pro21,Pro27 … (peptide)
peptide: B2 peptide with N14E, H34S
modifications: C20 diacid-gGlu-2xOEG on the alpha amino group of the N-terminal residue; disulfide Cys2-Cys7 and C-terminal amide as in human amylin
notes: as for B1
B5: N^α1-[(4S)-4-carboxy-4-(19-carboxynonadecanoylamino)butanoyl]-[Arg17,Pro21,Pro27,Pro34,Glu35]-h-amylin (peptide)
peptide: {C20 diacid-γGlu}-KCNTATCATQRLANFLRHSSPNFGAIPSSTNVGPETY-NH2
modifications: disulfide 2-7
SMILES: CC[C@H](C)[C@H](NC(=O)[C@H](C)NC(=O)CNC(=O)[C@H](Cc1ccccc1)NC(=O)[C@H](CC(N)=O)NC(=O)[C@@H]1CCCN1C(=O)[C@H](CO)NC(=O)[C@H](CO)NC(=O)[C@H](Cc1c[nH]cn1)NC(=O)[C@H](CCCNC(=N)N)NC(=O)[C@H](CC(C)C)NC(=O)[C@H](Cc1ccccc1)NC(=O)[C@H](CC(N)=O)NC(=O)[C@H](C)NC(=O)[C@H](CC(C)C)NC(=O)[C@H](CCCNC(=N)N)NC(=O)[C@H](CCC(N)=O)NC(=O)[C@@H](NC(=O)[C@H](C)NC(=O)[C@@H]1CSSC[C@H](NC(=O)[C@H](CCCCN)NC(=O)CC[C@H](NC(=O)CCCCCCCCCCCCCCCCCCC(=O)O)C(=O)O)C(=O)N[C@@H](CC(N)=O)C(=O)N[C@@H]([C@@H](C)O)C(=O)N[C@@H](C)C(=O)N[C@@H]([C@@H](C)O)C(=O)N1)[C@@H](C)O)C(=O)N1CCC[C@H]1C(=O)N[C@@H](CO)C(=O)N[C@@H](CO)C(=O)N[C@H](C(=O)N[C@@H](CC(N)=O)C(=O)N[C@H](C(=O)NCC(=O)N1CCC[C@H]1C(=O)N[C@@H](CCC(=O)O)C(=O)N[C@H](C(=O)N[C@@H](Cc1ccc(O)cc1)C(N)=O)[C@@H](C)O)C(C)C)[C@@H](C)O
notes: also called 17R, 21P, 27P, 34P, 35E
B6: N^α1-[(4S)-4-carboxy-4-(19-carboxynonadecanoylamino)butanoyl]-[Asp14,Arg17,Pro21,Pro27,Pro37]-h-amylin (peptide)
peptide: {C20 diacid-γGlu}-KCNTATCATQRLADFLRHSSPNFGAIPSSTNVGSNTP-NH2
modifications: disulfide 2-7
SMILES: CC[C@H](C)[C@H](NC(=O)[C@H](C)NC(=O)CNC(=O)[C@H](Cc1ccccc1)NC(=O)[C@H](CC(N)=O)NC(=O)[C@@H]1CCCN1C(=O)[C@H](CO)NC(=O)[C@H](CO)NC(=O)[C@H](Cc1c[nH]cn1)NC(=O)[C@H](CCCNC(=N)N)NC(=O)[C@H](CC(C)C)NC(=O)[C@H](Cc1ccccc1)NC(=O)[C@H](CC(=O)O)NC(=O)[C@H](C)NC(=O)[C@H](CC(C)C)NC(=O)[C@H](CCCNC(=N)N)NC(=O)[C@H](CCC(N)=O)NC(=O)[C@@H](NC(=O)[C@H](C)NC(=O)[C@@H]1CSSC[C@H](NC(=O)[C@H](CCCCN)NC(=O)CC[C@H](NC(=O)CCCCCCCCCCCCCCCCCCC(=O)O)C(=O)O)C(=O)N[C@@H](CC(N)=O)C(=O)N[C@@H]([C@@H](C)O)C(=O)N[C@@H](C)C(=O)N[C@@H]([C@@H](C)O)C(=O)N1)[C@@H](C)O)C(=O)N1CCC[C@H]1C(=O)N[C@@H](CO)C(=O)N[C@@H](CO)C(=O)N[C@H](C(=O)N[C@@H](CC(N)=O)C(=O)N[C@H](C(=O)NCC(=O)N[C@@H](CO)C(=O)N[C@@H](CC(N)=O)C(=O)N[C@H](C(=O)N1CCC[C@H]1C(N)=O)[C@@H](C)O)C(C)C)[C@@H](C)O
notes: also called 14D, 17R, 21P, 27P, 37P
B7: N^α1-[(4S)-4-carboxy-4-(19-carboxynonadecanoylamino)butanoyl]-[Arg17,Pro21,Pro27,Pro31,Glu35]-h-amylin (peptide)
peptide: {C20 diacid-γGlu}-KCNTATCATQRLANFLRHSSPNFGAIPSSTPVGSETY-NH2
modifications: disulfide 2-7
SMILES: CC[C@H](C)[C@H](NC(=O)[C@H](C)NC(=O)CNC(=O)[C@H](Cc1ccccc1)NC(=O)[C@H](CC(N)=O)NC(=O)[C@@H]1CCCN1C(=O)[C@H](CO)NC(=O)[C@H](CO)NC(=O)[C@H](Cc1c[nH]cn1)NC(=O)[C@H](CCCNC(=N)N)NC(=O)[C@H](CC(C)C)NC(=O)[C@H](Cc1ccccc1)NC(=O)[C@H](CC(N)=O)NC(=O)[C@H](C)NC(=O)[C@H](CC(C)C)NC(=O)[C@H](CCCNC(=N)N)NC(=O)[C@H](CCC(N)=O)NC(=O)[C@@H](NC(=O)[C@H](C)NC(=O)[C@@H]1CSSC[C@H](NC(=O)[C@H](CCCCN)NC(=O)CC[C@H](NC(=O)CCCCCCCCCCCCCCCCCCC(=O)O)C(=O)O)C(=O)N[C@@H](CC(N)=O)C(=O)N[C@@H]([C@@H](C)O)C(=O)N[C@@H](C)C(=O)N[C@@H]([C@@H](C)O)C(=O)N1)[C@@H](C)O)C(=O)N1CCC[C@H]1C(=O)N[C@@H](CO)C(=O)N[C@@H](CO)C(=O)N[C@H](C(=O)N1CCC[C@H]1C(=O)N[C@H](C(=O)NCC(=O)N[C@@H](CO)C(=O)N[C@@H](CCC(=O)O)C(=O)N[C@H](C(=O)N[C@@H](Cc1ccc(O)cc1)C(N)=O)[C@@H](C)O)C(C)C)[C@@H](C)O
notes: also called 17R, 21P, 27P, 31P, 35E
B8: N^α1-[2-[2-[2-[[2-[2-[2-[[(4S)-4-carboxy-4-(19-carboxynonadecanoylamino)butanoyl]amino]ethoxy]ethoxy]acetyl]amino]ethoxy]ethoxy]acetyl]-[Glu14,Arg17,Pro21,Pro27 … (peptide)
peptide: {C20 diacid-γGlu-AEEA-AEEA}-KCNTATCATQRLAEFLRHSSPNFGAIPSSTNVGSNTP-NH2
modifications: disulfide 2-7
SMILES: CC[C@H](C)[C@H](NC(=O)[C@H](C)NC(=O)CNC(=O)[C@H](Cc1ccccc1)NC(=O)[C@H](CC(N)=O)NC(=O)[C@@H]1CCCN1C(=O)[C@H](CO)NC(=O)[C@H](CO)NC(=O)[C@H](Cc1c[nH]cn1)NC(=O)[C@H](CCCNC(=N)N)NC(=O)[C@H](CC(C)C)NC(=O)[C@H](Cc1ccccc1)NC(=O)[C@H](CCC(=O)O)NC(=O)[C@H](C)NC(=O)[C@H](CC(C)C)NC(=O)[C@H](CCCNC(=N)N)NC(=O)[C@H](CCC(N)=O)NC(=O)[C@@H](NC(=O)[C@H](C)NC(=O)[C@@H]1CSSC[C@H](NC(=O)[C@H](CCCCN)NC(=O)COCCOCCNC(=O)COCCOCCNC(=O)CC[C@H](NC(=O)CCCCCCCCCCCCCCCCCCC(=O)O)C(=O)O)C(=O)N[C@@H](CC(N)=O)C(=O)N[C@@H]([C@@H](C)O)C(=O)N[C@@H](C)C(=O)N[C@@H]([C@@H](C)O)C(=O)N1)[C@@H](C)O)C(=O)N1CCC[C@H]1C(=O)N[C@@H](CO)C(=O)N[C@@H](CO)C(=O)N[C@H](C(=O)N[C@@H](CC(N)=O)C(=O)N[C@H](C(=O)NCC(=O)N[C@@H](CO)C(=O)N[C@@H](CC(N)=O)C(=O)N[C@H](C(=O)N1CCC[C@H]1C(N)=O)[C@@H](C)O)C(C)C)[C@@H](C)O
notes: also called 14E, 17R, 21P, 27P, 37P

Molecular target: T1, human amylin receptor
Assay: SPA competition binding, displacement of 125I-rat amylin from membranes with human amylin 3(a) receptor (Assay V)
Procedure: The binding assay was performed using scintillation proximity assay (SPA) beads (RPNQ0001) from PerkinElmer and cell membranes from the Amylin 3(a)/CRE-luc cells (as described in Assay (II)) were used. Membranes were prepared in the following way; the cells were rinsed with PBS and incubated with Versene for approximately 5 min before harvesting. The cells were flushed with PBS and the cell-suspension was centrifuged for 5 min at 1000 rpm. Cells were homogenized (ultrathurrax) in a buffer containing 20 mM Na-HEPES and 10 mM EDTA (pH 7.4) and centrifuged at 20.000 rpm for 15 min. The resulting pellet was resuspended, homogenized and centrifuged (20.000 rpm, 15 min) in a buffer containing 20 mM Na-HEPES and 0.1 mM EDTA (pH 7.4, buffer 2). The resulting pellet was resuspended in buffer 2 and protein concentration was measured (BCA protein Assay, Pierce). The homogenate was kept cold during the whole procedure. The membranes were kept at −80° C. until use. The assay was performed in a 384 well Optiplate (PerkinElmer) in a total volume of 40 ul. Membranes were mixed with SPA beads. Final concentration of membranes 35 ng/μL final and SPA beads was 0.05 mg/well. Test-compounds were dissolved in DMSO and further diluted in assay buffer (50 mM Hepes, pH 7.4, 1 mM CaCl2, 5 mM MgCl₂, 0.1% OA and 0.02% Tween20). […] The final mixture was incubated with shaking at 400 rpm for 120 min at 25° C. prior to centrifugation (1500 rpm, 10 min). Samples were analyzed on TopCounter™ (Packard). The IC₅₀ was calculated using (one site binding competition analysis) GraphPad Prism5 as a measure of receptor affinity.

| Binder | IC50 [nM] |
| --- | --- |
| B1 | 0.597 |
| B2 | 0.549 |
| B3 | 0.665 |
| B4 | 0.556 |
| B5 | 0.577 |
| B6 | 0.082 |
| B7 | 0.61 |
| B8 | 0.217 |
